Two substances from paper PMC10047488 can be followed below.

Test [1] deals with Gal4 DNA-binding domain fusion of parkin fragment P2 (amino acids 141-326) (human) (UniProt O60260). Nature of the test: two-hybrid; yeast two-hybrid based growth assay: diploids spotted in serial dilution on SD/-Leu/-Trp or SD/-Ade/-His/-Leu/-Trp plates with 0, 1, 5 or 10 uM PMN (peiminine), 30 °C, 3 days; and OD600 in liquid selective medium every 12 h for 48 h.
Test [2] deals with Gal4 DNA-binding domain fusion of HSD11B1L-181 fragment H2 (amino acids 92-181) (human). Described as above.
Sequence of Gal4 DNA-binding domain fusion of HSD11B1L-181 fragment H2 (amino acids 92-181) (human) (Q7Z5J1 92-181): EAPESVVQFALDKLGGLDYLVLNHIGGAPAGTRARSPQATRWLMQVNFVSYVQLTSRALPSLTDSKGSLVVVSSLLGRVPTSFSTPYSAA

As to “Gal4 activation domain fusion of HSD11B1L-181 fragment H2 (amino acids 92-181) (domain or fragment)”, the reduction of the growth rate in selective medium after 48 h, 10 uM PMN group against the DMSO group in test [1] worked out at 95%. “Gal4 activation domain fusion of parkin fragment P2 (amino acids 141-326) (from UniProt O60260-1 141-326) (domain or fragment)” registered a reduction of the growth rate in selective medium after 48 h, 10 mM PMN group against the DMSO group in test [2] of 93%.
